Source: the DeepSol protein solubility set

Assay: soluble on expression in E. coli; label from the status in PepcDB or PDB records

Sequence: MSRLRIYTESGELIKDITDPKEIAEELQKINVLFERWRANAPLKENASDEEIINAYKHEIDRLINKYGFQSYDVIAMTPEHPKKDELRQKFLKEHTHSDFEVRYFVYGDGVFYLHPNDKVYILHCTAGDLISVPPNTKHWFDMGENPNFKCIRLFTTPEGWVAEYTGSDIAEKFPKYEEVVNGLEHHHHHH
- soluble on expression in E. coli: soluble

Sequence: MSLEAKEVYFEQRGDIGYIVINNAPENMITLSLLEEFSNIVENSIINSKIKGIIITGKGRHFSSGTDIGKLKQTILKTAYIKENNSLVECSEFKRYIDALSSLYSINIPVISAINGLCIGSGFEIALHSHIRICSKGSIVGSPESTFGLMPGLGGISRYVQLCGLGKALELVLSGDLLSVNEALEIGIIDKIVKKNEISDYCNRLMEYILKNEMIYSKSKINSYIKLCDEGHHHHHH
- soluble on expression in E. coli: soluble

Sequence: MASYSSILVLSVCTIGALAVMEHNSYYPGGHSTSYYQPFQTDTYGSKYYNTESYGKYDEHGNNGKDSHYEPNYYNPIASYYHSYMPKYHGGHNDYYTKYNQYTPYYGGSHQQNYYEQPKHDDYHGGDHHYDMHK
- soluble on expression in E. coli: not soluble

Sequence: MAHHHHHHMSSSDGQGMRAVILVGGFGTRLRPLTLTTPKPLVPFCNKPMIIHQIEALKAVGVTEVILAVAYRPEAMKEQMDEWSRKLGVLFVFSVEEEPLGTAGPLALARDILMQDDKPFFVLNSDVTCPFPMQELLDFHKAHGGEGTIMVSQVTQWEKYGVVVYSPQNYQIERFVEKPSSFLGDRINAGIYIFNKSILDRIPPCRTSIEKEIFPSMAAEGQLYAFNLEGFWMDIGQPKDYILGMTKYIPFLVHSNRETEKLHTEATKHQRGGRFTVIGASLIDPSAKIGDGAVIGPYASIGANCVIGESCRIDNAAILENSKVGKGSMVSRSIVGWNNRIGSWCHIKDISVLGDDVEVEDGVVLIGTKVLPNKDVGEHHFEPGIIM
- soluble on expression in E. coli: soluble

Sequence: MSLARPDELMFAPLGGVGEIGMNLSIYGLGNRHQRSWLAVDLGVSFGDEEHLPGIDLIMPDVRFLEKERKNLVGLVLTHAHEDHFGAIIELWPRLKCPIYATKFSAALFEAKCAAERNPPDIPVTVVPSGDRIDLGPFGVEFVPVAHSIPESHALAIHTAAGIVVHTGDWKIDPTPIVGPPTDERRLRELGDEGVLALIGDSTNAVRDGRSPSETEVAKTIAELVKAARGRVAVTTFASNVGRLRAVADAARAAGREVVVVGRAMERVVQVARETGHLDGMQELRSADVYGHLPSDKVLALCTGSQGEPRAALARIAKDDHPQVTLNRGDTVIFSSRTIPGNERAVGAIINGLVTQGIKVITDRTELVHVSGHPRRDELRDMIAWVRPQLLIPVHGEALHLSEHAQLARAAGVPKVLICKNGDLVRLGPEGHHHHHH
- soluble on expression in E. coli: soluble

Sequence: MMDGDIIGENEDGIGVDVSDNNEIIHEISIEKGSWEIVYHEQDGYPDKAAKRTPDGNEHVNQARRFARYHVYKERGYETFPWDEHIGYIETVGDAIKSLSTEEFEDYFGEFYETVAGSLSLNSGGDITALFAAIQEKANAYYIDVYLDNDGQVEATSEVRQIIPTDDWQEELESPPEDTDRVPD
- soluble on expression in E. coli: not soluble

Sequence: AEKANQVSNIKTQLAMEYMRGQDYRQATASIEDALKSDPKNELAWLVRAEIYQYLKVNDKAQESFRQALSIKPDSAEINNNYGWFLCGRLNRPAESMAYFDKALADPTYPTPYIANLNKGICSAKQGQFGLAEAYLKRSLAAQPQFPPAFKELARTKMLAGQLGDADYYFKKYQSRVEVLQADDLLLGWKIAKALGNAQAAYEYEAQLQANFPYSEELQTVLTGQ
- soluble on expression in E. coli: soluble

Sequence: GGCYERIFAVPQQERTSLRVVTALAHGCDLVITRAGPTPRTYTPLQTQRFRNSLRSDAGCVIMMGDHVVSPAARLASAVVGYHGIGKGTGRIKAVEITVTGIAKGFYRTSRVIVGKHIAPAAEKTTMKVV
- soluble on expression in E. coli: not soluble

Sequence: MGSDKIHHHHHHMKPEAYPHPVKVVELVETHISWVLLTGSYAYKLKKAVHLDFVDATTLKQRLHFCQEELRLNRRLAPDLYLGVTRILESVDGAKVLDENFELNDPSTKGVVDVAVKMRQFPVSRLLSVYLSDGVLKTESLKRLAFELAGFHLSVKTASADGDFGGFDAVINPVHANLRVLDQLTLTEPLELWLEEHRAWIKSIQPELAFRFKQRLNAGAIRECHGDLHVGNIHLNNDESLEVFDAIDFNPSLRWIDPISEMAFLVMDFEVHDHQGDAMVILNEWLEHTGDYKALDLWPWYSAYRALVRAKVSGLQWQQLCSQSQHHSVDQQHLQRLLKDLNLYIQRAREVQQTKSAGIVLMHGLSGSGKSFLSEQLYQQLPAVRLRSDIERQRAFGRRPLHKLLGFEKGSMTSVGIKPLFQGDPYRPEVTQWLFDQCLPALTQSCLSSGYTTIVDATFLRERERQRMFVLARQQGCPIAIVACECSDFTAQERIATRMGIGTDPSEADLSVRELQKAWIEPLTTDEQDLTVRFTEKTPISIGLERLRVLLNP
- soluble on expression in E. coli: not soluble
